B1: PP2Ac^150-309 fused to the GAL4 DNA binding domain (enzyme)
chain: FDYLPLTALVDGQIFCLHGGLSPSIDTLDHIRALDRLQEVPHEGPMCDLLWSDPDDRGGWGISPRGAGYTFGQDISETFNHANGLTLVSRAHQLVMEGYNWCHDRNVVTIFSAPNYCYRCGNQAAIMELDDTLKYSFLQFDPAPRRGEPHVTRRTPDYFL
B2: GAL4 transactivation domain alone (empty vector pGAD424) (other)
chain: ANFNQSGNIADSSLSFTFTNSSNGPNLITTQTNSQALSQPIASSNVHDNFMNNEITASKIDDGNNSKPLSPGWTDQTAYNAFGITTGMFNTTTMDDVYNYLFDDEDTPPNPKKE
B3: PP2Ac^100-309 fused to the GAL4 DNA binding domain (enzyme)
chain: LVALKVRYRERITILRGNHESRQITQVYGFYDECLRKYGNANVWKYFTDLFDYLPLTALVDGQIFCLHGGLSPSIDTLDHIRALDRLQEVPHEGPMCDLLWSDPDDRGGWGISPRGAGYTFGQDISETFNHANGLTLVSRAHQLVMEGYNWCHDRNVVTIFSAPNYCYRCGNQAAIMELDDTLKYSFLQFDPAPRRGEPHVTRRTPDYFL
B4: full length human PR55α fused to the GAL4 DNA binding domain (other)
chain: MAGAGGGNDIQWCFSQVKGAVDDDVAEADIISTVEFNHSGELLATGDKGGRVVIFQQEQENKIQSHSRGEYNVYSTFQSHEPEFDYLKSLEIEEKINKIRWLPQKNAAQFLLSTNDKTIKLWKISERDKRPEGYNLKEEDGRYRDPTTVTTLRVPVFRPMDLMVEASPRRIFANAHTYHINSISINSDYETYLSADDLRINLWHLEITDRSFNIVDIKPANMEELTEVITAAEFHPNSCNTFVYSSSKGTIRLCDMRASALCDRHSKLFEEPEDPSNRSFFSEIISSISDVKFSHSGRYMMTRDYLSVKIWDLNMENRPVETYQVHEYLRSKLCSLYENDCIFDKFECCWNGSDSVVMTGSYNNFFRMFDRNTKRDITLEASRENNKPRTVLKPRKVCASGKRKKDEISVDSLDFNKKILHTAWHPKENIIAVATTNNLYIFQDKVN

Legend:
[1] = biological target: full length human eRF1 fused to the GAL4 transactivation domain (yeast; human, UniProt P62495); experiment: yeast two-hybrid: His growth (HF7c) and colony colour in filter β-Gal assay (SFY526)
From the text: PCR products encoding three N-terminal (PP2Ac^50-309, PP2Ac^100-309 and PP2Ac^150-309) and three C-terminal (PP2Ac^1-259, PP2Ac^1-209 and PP2Ac^1-159) truncations of PP2Acα are subcloned into pGBT9 in-frame with the GAL4 DNA binding domain. Control plasmids encoding wild-type GAL4 protein (pCL1), SV40 large T antigen (pTD1), p53 (pVA3) and lamin C (pLAM5'), the latter three fused to the appropriate domains of GAL4, are provided by the manufacturer and used for control interactions. Expression constructs are transformed into *S. cerevisiae* host strains SFY526 (lacZ reporter gene) and HF7c (lacZ and HIS3 reporter genes). […] The expression of the lacZreporter gene is determined by measuring β-galactosidase activity using 5-bromo-4-chloro-3-indolyl-β-D-galactoside [X-Gal] and O-nitrophenyl-β-D-galactoside [ONPG] as substrates, whereas the expression of HIS3 reporter gene is assessed by monitoring growth on triple selective SD medium lacking leucine, tryptophan and histidine. All media and reagents are prepared according to the manufacturer's recommendations. Transcriptional activation of reporter genes driven by wild-type GAL4 protein or brought about by the interaction between SV40 largeT and p53 are used as positive controls. To exclude intrinsic transcriptional activation capacity or non-specific binding of either molecules to unrelated proteins, cotransformations with the empty vector or vector encoding human lamin C fused to the opposite domain of GAL4 are used as negative controls.

[2] = biological target: full length human PP2Acα fused to the GAL4 DNA binding domain (yeast; human); experiment: yeast two-hybrid, empty vector control: His growth (HF7c) and filter β-Gal colour (SFY526)
[3] = biological target: PP2Ac^50-309 fused to the GAL4 DNA binding domain (yeast; human, UniProt P04386); experiment: as above
[4] = biological target: B3; experiment: as above
[5] = biological target: B1; experiment: as above
[6] = biological target: PP2Ac^1-259 fused to the GAL4 DNA binding domain (yeast; human, UniProt P04386); experiment: as above
[7] = biological target: PP2Ac^1-209 fused to the GAL4 DNA binding domain (yeast; human, UniProt P04386); experiment: as above
[8] = biological target: PP2Ac^1-159 fused to the GAL4 DNA binding domain (yeast; human, UniProt P04386); experiment: as above
[9] = biological target: full length human PR65α fused to the GAL4 DNA binding domain (yeast; human); experiment: as above
[10] = biological target: B4; experiment: as above

Measured: binding result

B1
no binding: [1]

B2
not listed: [1]
no binding: all other assays above

B3
no binding: [1]

B4
no binding: [1]

Reference: patent US6159704, “Phosphatase modulator” (Novartis AG, dated 2000)
